# Measured values reported in IntAct's records for PubMed 21408167.
# B1: Death-associated protein kinase 2 (Homo sapiens), Q9UIK4-2 (parent)
# chain: MFQASMRSPNMEPFKQQKVEDFYDIGEELGSGQFAIVKKCREKSTGLEYAAKFIKKRQSRASRRGVSREEIEREVSILRQVLHHNVITLHDVYENRTDVVLILELVSGGELFDFLAQKESLSEEEATSFIKQILDGVNYLHTKKIAHFDLKPENIMLLDKNIPIPHIKLIDFGLAHEIEDGVEFKNIFGTPEFVAPEIVNYEPLGLEADMWSIGVITYILLSGASPFLGDTKQETLANITAVSYDFDEEFFSQTSELAKDFIRKLLVKETRKRLTIQEALRHPWITSKGEGRAPEQRKTEPTQLKTKHLREYTLKCHSSMPPNNSYVNFERFACVVEDVARVDLGCRALVEAHDTIQDDVEALVSIFNEKEAWYREENESARHDLSQLRYEFRKVESLKKLLREDIQATGCSLGSMARKLDHLQAQFEILRQELSADLQWIQELVGSFQLESGSSEGLGSTFYQDTSESLSELLSRSCTEEFLAGWKL
# Variants of: B1
# Settings: with atf4_human ATF4, P18848
# atf4_human ATF4, P18848, sequence (P18848 whole entry): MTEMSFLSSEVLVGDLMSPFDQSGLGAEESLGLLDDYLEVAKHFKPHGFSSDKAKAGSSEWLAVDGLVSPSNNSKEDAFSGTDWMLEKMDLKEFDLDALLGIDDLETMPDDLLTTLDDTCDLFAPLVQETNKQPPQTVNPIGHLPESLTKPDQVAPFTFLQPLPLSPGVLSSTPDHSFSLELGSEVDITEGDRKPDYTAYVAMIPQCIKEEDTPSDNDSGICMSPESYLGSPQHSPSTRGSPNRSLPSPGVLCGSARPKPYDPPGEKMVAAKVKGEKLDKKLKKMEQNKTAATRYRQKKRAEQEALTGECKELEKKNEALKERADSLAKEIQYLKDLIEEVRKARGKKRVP
row,Variant,effect of a mutation on the interaction
1,L434A;I441A;F448A,decreasing interaction
